Source: the DeepSol protein solubility set

Assay: soluble on expression in E. coli; label from the status in PepcDB or PDB records

| Sequence | soluble on expression in E. coli |
| --- | --- |
| MGSDKIHHHHHHMTEITTLTQFLSTANTQFQVYDLGRRVQHIDMMAFSQIEALQAPYPSPIQGHAQFAIVFWDDSNQHFIWFLKLPLDERGLLSPAPRTQFIRMVIEALGSDPTQALSQDQQDTLANHPFAFKPSAEKLALFNALVRKQLGLPASAQYEFAYQYLSGQVSPERWQDVGLQGLADICVRAAALDHNEQLLNALEHSADEVKIALCQQLEHITLDAPLAERLLSAFYQGSPEQKLYYLRALASAPALAQQAIQYLDEQDALDDNALITIAGRNWTALKDDQTRKIYLEALAKQPQGFFNQIFADIVAIPAIRTQLLMALRDSERSQALANAIGGLFRVTKA | not soluble |
| SQACVMPSLLQNMVGFSEVARATQTDPRPQRPAPPQPQVATMPWSQPGSWARRGFVPAWSQPPALSQQKLARQCCLGPWAGLIPHQQPLPRHPPQASSFPTTAGLWPPAFAQCGTLGHRAIYLVLWPPFLGPWLSSLQEKPHFIPQLPPACTPHPVPWWGLSIPGSKGRRSAPFLPLSLGRLGAQLWKHHPATHLSCGSRFFGGS | soluble |
| MDKIPDIMAKIKTMAPAIRSIDTRTVKVAPKVADAELQSAEYRQWRNAVYRRAGYRCEAIDNGRRCTKAAPAHRLFADHIVERRDGGALLDAANGQCLCGSHHTRKTVAARAARLSSRSRGGGSNLLEHHHHHH | soluble |
| MAAFNDTLRAEIEEKKEDSVSERTTRNGKILNAKDEPEFGMNITPTTLFFKYPIGGIGYSFFTVTNTTSEKQAFKVKSSDNTWFRSKPSVGFIKSGEKVHVRVTFNSPDAGKERPERGSDNKNHVAIFHVAAGDAKTYKEAFAKKAADGVHHFFARHLAEPGAQVDKEADEKAPNGA | soluble |
| AIALVSHGAIVKSAPKHWNGSKCPIRMQVRVPDPDRRSLLRAGAHIILGGLLATVIPGTSPSIAKIREKPTDKGEEAPKIDDEKELDKYVSGLKYEEELYENPDPAEKEVYRTPRVEREPEYKKKEDEILEKESKVLKEEAREAARESEVLRQEFEKR | soluble |
| GLVPRGSHMYAELSPGTKKVYTQVRYLDDYHWEIEGSTITGIHKKSNVKVVIDVAKNREEADSLAGKDVNGIHIVAIPDNGVFYIKNGSFVLTYRYLKATLADINDHIVWSGFKVVEDNGKLVQEDVYEYLGAALVNHIKNNALAGQDYIFWQFYKCEECGKYVDIENLEAHLREHGIKLHEKSEEHYEVFELNFREGKVFDKFGGEVPMDKFSSEAREFIKEVLS | soluble |
| MGSDKIHHHHHHDAVRTYYAKAISANEKTNSVCMFVKEAEKWAMDWDEKAKDPQFQKPPLFGLPMSLKECVPLEGYDQTRGFVQDTFRPTETDGVLVQQLKKLGAIPYVQTNVPQSLLSYNCSNPVYGTTNHPMDKTRTSGGSSGGESALISADGSLLGIGGDVGGSIRIPCAYTGTTGIKPSHLRFSHRGVCGSVPGRPLINSNDGPMSTRVETNVDFLRTVWADTWITEQDPYVPPVTWNEEAYKSDKKLKIGYYVDDGWFTPTPVCQRAVMEAKQILEDSGHTLVPFRPPRVPEVLRMFLRAVCVDAGTFLSKKLMNDIIDPLLYTQVVLWMVPVPIQRFLSSIIKVFFPRLGNLMDAMTLSTVELRNTYADIEAYRSEMAGLMVDQKIDALLCPVTVSPALPHVSPSKLFAGTSYTGIFNLLDYAAGSVNVTHVTKQDELDLEDYEESDPWYALAKKGSRGTIGFPIGVQVATPPYKEETCLRIMREIERGVTGK | not soluble |
| MIKRNLLVIGLAVMLSACGFQLRGTGATELSVKEMDVSARNAYGPTVLQLREVLERSGVNVHAGAPYRLVLTNEQERERSATYNSGNRTAEYELTTKLDYSILGLNNLELMSDKLEVRKVYVRDGSNITGSEQEAKRAREEMRRDLVNAMVVRLQMLSPPQLDELQRKADERAQAEAAALEAARRQQAETPQQSPLEVPGN | not soluble |
| MGEISLGEVFHLKSGKYLKADERFEDGKFPYYGAGIESTSFVNEPNTKGDTLSMIANGYSIGNIRYHTIPWFNGTGGIAMEALKPNKTYVPFFYCALKYMQKDLKERFKRDESPFISLKLAGEIKVPFVKSFALQRKAGKIIYLLDK | not soluble |
| GMPAPLRFSSDKPLLLLIDMQQAVDDPSWGPRNHPQAEQACAGLLQAWRARGLPLIHIRHDSVEPNSTYRPGQPGHAFKPEVEPRPGETVIAKQTNSAFIGTGLEALLRANGWLELVVAGVSTSNSVEATVRMAGNLGFAVCLAEDGCFTFDKTDWHGRRRSADEVHAMSLANLDGEYCRVCGSADILAALGNIAGAA | soluble |
| MGSDKIHHHHHHVLKELNQLMDHIERHLTEELSGMDIVRITGVSEYHFRRMFSYMSGMTLNEYIRNRRLSQANINLVNQHSVTEVAYEYGYQSIEGFSRAFREWSGFLPSEVIKNKIQKSFPRFTFYIDIKGGVSMEFKIERKSQFHVVGVSKRVPIQFEGVNHSIVELAQSITPQQRQEMQQLADLYPETVLNVSFDFDEGYLEEQGSLTHMIGFATSRQNPYGDLEQITIEDSLWAVFPNTGPFPQMLQETMAKTYAEWLPTSGYELVDLPSILFTNHEDDSLNVYSEVWVPVKEKTTS | not soluble |
| QQFPNECQLDQLNALEPSHVLKAEAGRIEVWDHHAPQLRCSGVSFVRYIIESKGLYLPSFFSTAKLSFVAKGEGLMGRVVPGCAETFQDSSVFQPGGGSPFGEGQGQGQQGQGQGHQGQGQGQQGQQGQQGQQSQGQGFRDMHQKVEHIRTGDTIATHPGVAQWFYNDGNQPLVIVSVLDLASHQNQLDRNPRPFYLAGNNPQGQVWIEGREQQPQKNILNGFTPEVLAKAFKIDVRTAQQLQNQQDNRGNIIRVQGPFSVIRPPLRSQRPQEEVNGLEETICSARCTDNLDDPSNADVYKPQLGYISTLNSYDLPILRFLRLSALRGSIRQNAMVLPQWNANANAVLYVTDGEAHVQVVNDNGDRVFDGQVSQGQLLSIPQGFSVVKRATSEQFRWIEFKTNANAQINTLAGRTSVLRGLPLEVISNGYQISLEEARRVKFNTIETTLTHSSGPASYGGPRKADA | soluble |
| MAPAKKVETRSTDGETRRHIMLIMLKEGPVTATQLGQQLNLSATGIRRHLDILLDEGFAEISSVRRVACEKSRGRPAKAFKLTASGRSQFGHEYDSLAAEALATLKESGGEAAVRAFARKRVEKILADVHVPDNIDDNQLAEVATQLVEAFSNNGYAATINNAANGVQICQHHCPISGVAADFPELCEAEHEMIAKILGHHVQPLASIADGHDICTTNIPITPILTPRKNTPTERSGS | not soluble |
| MSLRRILITGANGFVGQILCSMLRQAGHHVIALVGAESALSSHADESVRCDIRDASGLEQALCRAAPTHVVHLAAITHVPTSFNNPVLTWQTNVMGSVNLLQALQRSAPEAFVLFVSSSEVYGETFKQGTALGEDSACKPMNPYAASKLAAEAAFNEYFRQGRKGIVVRPFNHIGARQSPDFATASFARQIALIEAGKQAPQLKVGNLQAARDFLDVHDVCDAYVALLQLADEQERYPGCLNICRGEPTSLQTLLTQLMALSSSVIEVTIDPDRMRPSDIPSAFGNNSAMRCATGWKPKTKLDDTLEALLNYWRHEVISAEGHHHHHH | soluble |
| MSLSIYKDINIASAKPSLKERKNIKHYALDHLNIDEKNNAPLFKTLLEDAMRVSSKEILLIVGGSSFYLKSILEGLSRMPKLSGEEVVKIEREIATLSNPYIFLKSIDPNMAFKIHPNDTYRTHKALEIFYATCTPPSEYFKANPKKPFEHAISLFALSIEKSALHNNIKRRTKNMLHSGLVEEIKALYTQYPKDSQPFKAIGVKESVLFLEKRLTLKELEEAITSNTMKLAKRQNTFNKTQFNNLYVGSAEEVRHAILKHSKSGIKGEGHHHHHH | not soluble |
| MQLEELINQHYSKLNDNDFHILKYILNHKHTCYHLGIDALAKACSVSRSSILRLAQKLGFSGYSEFRVFLKWEDQPEEGESMSFEKLLDDIEANLKFLRTKDMTDMCQLIDAADRIFVYGSGNAQKICARDLQRMFIPRHRYLILIEDTNEFNLMRDDFKVNDLFIIISLSGETPELIPQARMLSAKGIPFISITNLKNNVLAQLTPHNLYATSKPVTLSDRTEIVAFAPFFLVGEALFRAYVDYKEAEKNDNEMAGDPLEHHHHHH | soluble |
| MSLRHVRERGVLVATLQRLAEQDPLTGIANRQGFQALLNARLAENEGRGVALGHLDLDNFRHVNDALGHQSGDRLILQVVARLKHQLEAGDQLARLGSDEFALLIDTRRDANRAEWIAERIVEALAEPYWIDGESLLLGCSLGIAHARAQSGADPLMWHAHIAMRQAKGSQGCTFHVFNERINRNARSLADLESELRRALRRDELELHYQPRLNLADGRIVGLEALVRWRHAERGLLPPSEFVPLAEQSGLIVPLGYWVISRALRDMQALCERGLEPLHMAVNLSFRQFQDSQLLATLSRLILEHGVDARWLEFELTETAVMRRNEVVRQTMDALGRLGVRFSLDDFGTGFSSFVHLNSLPITLLKVDRSFVAEMEMREENRKLVHAMINLAHNLNLEVVAEGVESEEQLTLLRGFGCDQVQGFLVSRPLPIGELMAYLLQAPGRQLEGEGHHHHHH | soluble |
| MAHHHHHHMGIYIFCLFPKGGRESKWGKPTITTKKVQGMPFPHPSHHHHHYHQKQQKTHHCHPRCTLVFLRQARAHKAITPPDVQRRTQRLNAQGKTTKKKSYDDGPPFFLFEKKKKRKAERHKEKGEKEGKGNVNTYRIVKEKEKVNKYLIYFYNNNNNYYYTYVCVYIHTTT | not soluble |
| MGSDKIHHHHHHMKNFSLWCDFIENSFLDNEFLNLLSHGINGATSNPAIFKNAILNSPIYKDKILKLKEKKTKDIYEELAISDIQKAADKLAPLFYQKNDGFISIEIDPRLHDNTTLSLGEAKRLYSAIGKENIMIKIPATKASYEVMYELMKNGISVNATLIFSLEQSQKCFEALNAGLVEFRKNNIALKEQNTRTPQAVISIFVSRFDRLLNPKAKEQNRIGILNANLAYNNIYSKNEPNIRALFASTGVKGDDLPKDYYIKELLFENSVNTAPLDAIEAFKGKMHFKKPLMNFEIYTELNQIISQSEREKACNDLLSDGLEQFCIAFEDILKAL | not soluble |
| MGGSHHHHHHGMASGSPPTQPSPASDSGSGYVPGSVSAAFVTCPNEKVAKEIARAVVEKRLAACVNLIPQITSIYEWKGKIEEDSEVLMMIKTQSSLVPALTDFVRSVHPYEVAEVIALPVEQGNFPYLQWVRQVTESVSDSITVLP | soluble |
| MFDIILEIVILLFNLLIQNLISLIKYALPYSLLPKKDLYRKKVLITGAGNGLGKLLAQKFAARGATLILWDINLQSVDELKNEIRGNQGEAHSYEVNLCDPGKIAQVGQQVINDIGKVDILVNNAGIATAKMILDSSENEINRSFDVNVKAHFYTVQQFLPAMLKDNNGHIVTIASAAGKMGSSGLADYSSTKHAAVGFHDSLVAEIMESEKNGVKTTLVCPYYVHTSMFDATGAATRFPWIFPILDTDYVVQKIFEAIETEQEFLVTPRAFYLVFAGIQILPYKAQAMVAQFFGLVQNLERFHK | not soluble |
| MDVLPGRPRARRRRRRRQSRANILAIGVHLPRLRLSRGAMANALGWLSGGAGAGKGSRTLAYWDEDSVTMAVAAARHALARQAAPAIDALQFASTTPPFAEPQNAAFVRAALRLPATTLTQDVHGTPRAGLLALHMALESGTRTLVAAADLPTALPGSTAEARAGDGGAAVLTGDEPGLLRYLGGASLSAPFTDRYRAAGHDYPQEWEERWLREAGYLELVHDAIGRALQAASLRPEQVDHFVLPCPVPGVAAAVAAKAGLGQARLASALAENCGDTGAAHAFVMLGRALEDAAPGQKVLVAQFGQGATALLFEADEAVAGLAAPVSPALRDGLAEDNYMKLLAFRGRIAWDRGLRGRFLVNEALSTAWRNADALLDFVGGRCRETGQVQFPPTRLAATGGFHLDTQEPWPLADRGGRIATFTADLLAFSPCPPNCYGLVDIDGGGRVLMEFTDPQASQLEAGAAVAFALRIKDLDPQTGYRRYFWKALAAPTAD | not soluble |
| MKDNRYSPDWPQLALQKKQAVGWVCERCGVQCLKPGEGKGLLKEERYRLRMAVHHCDYDPSNNSPSNLMALCSPCHLHYHQRQRGNVTPGQLSLGFVYRSCLVCAQQLEHHHHHH | not soluble |
